According to article PMC10833452 (Protein & Cell, 2023):

B1: 8H12 monoclonal antibody (mouse IgG) (antibody, V domains shown)
VH: EVKLEESGGGLVQPGGSMKLSCAASGFTFSDAWMDWVRQSPEKGLEWVAQIRRKANNHATYYAESVKGRFTISRDDSKSSVYLQMNSLRAEDTGIYYCIRGMTYAMDFWGQGTSVTVSS
VL: DIVMTQFQKFMSTSVGDRVSITCKASQNVRTAVAWYQQKPGQSPKAMIYLASNRHRGVPDRFTGSGCGTDFTLTISNVQCEDLADYFCLQHRNYPLTFGGGTKLEIK
B2: S2E12 recombinant antibody (human IgG constant region) (antibody, V domains shown)
VH: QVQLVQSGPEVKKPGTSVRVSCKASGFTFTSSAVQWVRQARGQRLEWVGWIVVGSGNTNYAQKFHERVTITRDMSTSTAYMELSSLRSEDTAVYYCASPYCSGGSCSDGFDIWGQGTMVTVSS
VL: DIVLTQTPGTLSLSPGERATLSCRASQSVSSSYLAWYQQKPGQAPRLLIYGASSRATGIPDRFSGSGSGTDFTLTISRLEPEDFAVYYCQQYVGLTGWTFGQGTKVEIK
B3: S2X35 recombinant antibody (human IgG constant region) (antibody, V domains shown)
VH: QVQLVQSGAEVKKPGASVKVSCKASGYTFTNYGISWVRQAPGQGLEWMGWISAYKGNTNYAQKLQGRVTMTTDTSTSTAYMELRSLRSDDTAVYYCARPDYQVLGYDFWIGYYGMDVWGQGTTVIVSS
VL: QSVLTQPPSVSGAPGQRVTISCTGSSSNIGAGYDVHWYQQLPGTAPKLLIYGNTNRPSGVPDRFSGSKSGTSASLAITGLQAEDEADYYCQSYDSSLSGSEVVFGGGTKLTVL
B4: VacW-209 recombinant antibody (human IgG constant region) (antibody, V domains shown)
VH: QVQLVESGGGVVQPGRSLRLSCAASGFTFSSIAMHWVRQAPGKGLEWVAVMSFDGSIKYYGDSVKGRFTISRDNSKSTLYLQMNSLRAEDTAVYYCARGVQGYYDRSGYYNLDYNYGMDVWGQGTTVTVSS
VL: QSVLTQPPSVSGAPGQRVTISCTGSSSNIGAGYDVHWYQQLPGTAPKLLIYGNSNRPSGVPDRFSGSKSGTSASLAITGLQAEDEADYYCQSYDSSLSGWVFGGGTKLTVL
B5: S2E12 Fab (Fab, V domains shown)
VH: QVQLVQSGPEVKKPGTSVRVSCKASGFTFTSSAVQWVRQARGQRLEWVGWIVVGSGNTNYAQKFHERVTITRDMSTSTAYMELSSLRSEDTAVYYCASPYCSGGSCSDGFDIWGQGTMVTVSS
VL: B2 VL
B6: S2X35 Fab (Fab, V domains shown)
VH: B3 VH
VL: B3 VL
B7: VacW-209 Fab (Fab, V domains shown)
VH: B4 VH
VL: B4 VL

Target: T1, SARS-CoV-2 wild-type spike protein ectodomain, prefusion-stabilized trimer (WT-S) (SARS-CoV-2 prototype (MN908947), UniProt P0DTC2, proline substitution at 986 | proline substitution at 987 | GSAS substitution …)
Assay: SPR
Settings: both partners purified

**Q.** Does B1 bind?
**A.** binds

**Q.** Does B2 bind?
**A.** binds

**Q.** Does B3 bind?
**A.** binds

**Q.** Does B4 bind?
**A.** binds

Target: T1, SARS-CoV-2 wild-type spike protein …
Assay: cryo-EM structure
Settings: both partners purified

**Q.** Does B5 bind?
**A.** binds

**Q.** Does B6 bind?
**A.** binds

**Q.** Does B7 bind?
**A.** binds
